Patent US20190055314A1 (ADAGENE, published 2019)
Where two headings read alike, the source gives them in different places.

Assays:
[1] = target: T1, CD137-hisFc fusion protein (Sino Biological Cat 10041-H03H) (human, UniProt Q07011 24-186); assay: BLI Octet, Fab
T1 construct: Bought; also called recombinant human CD137 (fused with human Fc and His tag); not shown: His tag and human Fc

[2] = target: T1, CD137-hisFc fusion protein (Sino …); assay: BLI Octet, Fab; remark: listed apart in the source

B1: Fab 4139 (Fab, V domains shown)
VH: EVQLVESGGGLVQPGGSLRLSCAASGYTFTGYAIHWVRQAPGKGLEWVSAISGDGGSTYYADSVKGRFTISRDNSKNTLYLQLNSLRAEDTAVYYCARGYRGYFDYWGQGTLVTVSS
VL: DIQLTQSPSSLSASVGDRVTITCRASESVTSTYLAWYQQKPGKAPKLLIYDASNLETGVPSRFSGSGSGTDFTLTISSLQPEDFATYYCQQYSDWPPTFGQGTKVEIKR
notes: Fab from E. coli; also called VH8/VL8
B1 was tested, and the Kd [1] was 1.65 nM, the koff [1] was 8.17e-05 s⁻¹ and the kon [1] was 49600 M⁻¹ s⁻¹.

B2: Fab 5404 (Fab, V domains shown)
VH: EVQLVESGGGLVQPGGSLRLSCAASGYSISSGYHWAWIRQAPGKGLEWIGEIYHSGSTYYSPSLKSRVTISRDNSKNTLYLQLNSLRAEDTAVYYCARSPYYYGVFDYWGQGTLVTVSS
VL: DIQLTQSPSSLSASVGDRVTITCSASSRVGSVYWYQQKPGKAPKLLIYDASNLETGVPSRFSGSGSGTDFTLTISSLQPEDFATYYCQQYTHDPVTFGQGTKVEIKR
notes: Fab from E. coli; also called VH34/VL34
For B2, the Kd [1] was 3.3 nM, the koff [1] was 0.0013 s⁻¹ and the kon [1] was 395000 M⁻¹ s⁻¹. For the same binder, the Kd [2] was 3.3 nM, the koff [2] was 0.0013 s⁻¹ and the kon [2] was 400000 M⁻¹ s⁻¹.

B3: Fab 4072 (Fab, V domains shown)
VH: EVQLVESGGGLVQPGGSLRLSCAASGFSLSTSGVAVSWIRQAPGKGLEWIGIINPNFGDTNYAQKFQGRVTISRDNSKNTLYLQLNSLRAEDTAVYYCARDEYYGGSYYFDYWGQGTLVTVSS
VL: DIQLTQSPSSLSASVGDRVTITCRASQDVRTAVAWYQQKPGKAPKLLIYDASNLETGVPSRFSGSGSGTDFTLTISSLQPEDFATYYCQQSYDWPPTFGQGTKVEIKR
notes: Fab from E. coli; also called VH2/VL2
In the case of B3, the Kd [1] is reported as 6.95 nM, the koff [1] is reported as 0.00107 s⁻¹ and the kon [1] is reported as 154000 M⁻¹ s⁻¹. The Kd [2] was 7 nM, the koff [2] was 0.0011 s⁻¹ and the kon [2] was 150000 M⁻¹ s⁻¹.

B4: Fab 5360 (Fab, V domains shown)
VH: EVQLVESGGGLVQPGGSLRLSCAASGYSITSGHYWNWIRQAPGKGLEWVSGISGDGSSTYYADSVKGRFTISRDNSKNTLYLQLNSLRAEDTAVYYCARGGSDAVLGDWFAYWGQGTLVTVSS
VL: DIQLTQSPSSLSASVGDRVTITCRASQSISSYLAWYQQKPGKAPKLLIYDASNLETGVPSRFSGSGSGTDFTLTISSLQPEDFATYYCQQGYSTWTFGQGTKVEIKR
notes: Fab from E. coli; also called VH28/VL28
Binder B4 has a Kd [1] of 24.1 nM, a koff [1] of 0.00289 s⁻¹ and a kon [1] of 120000 M⁻¹ s⁻¹. For the same binder, the Kd [2] was 24 nM, the koff [2] was 0.0029 s⁻¹ and the kon [2] was 120000 M⁻¹ s⁻¹.

B5: Fab 5348 (Fab, V domains shown)
VH: EVQLVESGGGLVQPGGSLRLSCAASGFSLSTGGVAVGWIRQAPGKGLEWVSGISGDGGTTYYADSVKGRFTISRDNSKNTLYLQLNSLRAEDTAVYYCTREDYGPHAYWGQGTLVTVSS
VL: DIQLTQSPSSLSASVGDRVTITCRASQSITTYLNWYQQKPGKAPKLLIYDASNLETGVPSRFSGSGSGTDFTLTISSLQPEDFATYYCQQSYSYSTFGQGTKVEIKR
notes: Fab from E. coli; also called VH23/VL23
In the case of B5, the Kd [1] is reported as 10.2 nM, the koff [1] is reported as 0.0133 s⁻¹ and the kon [1] is reported as 1.31e+06 M⁻¹ s⁻¹.

B6: Fab 5302 (Fab, V domains shown)
VH: EVQLVESGGGLVQPGGSLRLSCAASGFSLSTGGVGVAWIRQAPGKGLEWVSSISGYGSTTYYADSVKGRFTISRDNSKNTLYLQLNSLRAEDTAVYYCAREGSDAVLGDWFGYWGQGTLVTVSS
VL: DIQLTQSPSSLSASVGDRVTITCQASQDITTYLAWYQQKPGKAPKLLIYDASNRATGIPSRFSGSGSGTDFTLTISSLQPEDFATYYCQQGYYLWTFGQGTKVEIKR
notes: Fab from E. coli; also called VH13/VL13
Work on B6 yielded a Kd [1] of 1.21 nM, a koff [1] of 0.000426 s⁻¹ and a kon [1] of 354000 M⁻¹ s⁻¹. The Kd [2] was 1.2 nM, the koff [2] was 0.00043 s⁻¹ and the kon [2] was 350000 M⁻¹ s⁻¹.

B7: Fab 5408 (Fab, V domains shown)
VH: EVQLVESGGGLVQPGGSLRLSCAASGYSITSGYHWSWIRQAPGKGLEWVSSISGYGDTTYYADSVKGRFTISRDNSKNTLYLQLNSLRAEDTAVYYCAREGSDTVLGDWFAYWGQGTLVTVSS
VL: DIQLTQSPSSLSASVGDRVTITCQASQDIRTYLAWYQQKPGKAPKLLIYDASNLETGVPSRFSGSGSGTDFTLTISSLQPEDFATYYCQQGYSIWTFGQGTKVEIKR
notes: Fab from E. coli; also called VH36/VL36
B7 was tested, and the Kd [1] was 23.6 nM, the koff [1] was 0.0075 s⁻¹ and the kon [1] was 318000 M⁻¹ s⁻¹. It also gave a Kd [2] of 24 nM, a koff [2] of 0.0075 s⁻¹ and a kon [2] of 320000 M⁻¹ s⁻¹.

B8: Fab 5359 (Fab, V domains shown)
VH: EVQLVESGGGLVQPGGSLRLSCAASGFSLSTSGVGVGWIRQAPGKGLEWLALIDWADDKYYSPSLKSRLTISRDNSKNTLYLQLNSLRAEDTAVYYCARGGSDAVLGDWFAYWGQGTLVTVSS
VL: DIQLTQSPSSLSASVGDRVTITCRASQGIGSYLAWYQQKPGKAPKLLIYDASNLETGVPSRFSGSGSGTDFTLTISSLQPEDFATYYCQQGYSIWTFGQGTKVEIKR
notes: Fab from E. coli; also called VH27/VL27
With B8 the Kd [1] was 0.71 nM, the koff [1] was 0.00033 s⁻¹ and the kon [1] was 464000 M⁻¹ s⁻¹. For the same binder, the Kd [2] was 0.71 nM, the koff [2] was 0.00033 s⁻¹ and the kon [2] was 460000 M⁻¹ s⁻¹.

B9: Fab 5413 (Fab, V domains shown)
VH: EVQLVESGGGLVQPGGSLRLSCAASGFSLSTGGVAVGWIRQAPGKGLEWLALIDWDGDKSYSTSLKSRLTISRDNSKNTLYLQLNSLRAEDTAVYYCAREGSTAVVGDWFDYWGQGTLVTVSS
VL: DIQLTQSPSSLSASVGDRVTITCRASQGISRYLAWYQQKPGKAPKLLIYDASNRATGIPSRFSGSGSGTDFTLTISSLQPEDFATYYCQQGYSLWTFGQGTKVEIKR
notes: Fab from E. coli; also called VH38/VL38
With B9 the Kd [1] was 0.993 nM, the koff [1] was 0.000551 s⁻¹ and the kon [1] was 555000 M⁻¹ s⁻¹. For the same binder, the Kd [2] was 0.99 nM, the koff [2] was 0.00055 s⁻¹ and the kon [2] was 560000 M⁻¹ s⁻¹.

B10: Fab 5371 (Fab, V domains shown)
VH: EVQLVESGGGLVQPGGSLRLSCAASGFSLSTSGVGVAWIRQAPGKGLEWVSYISGDGGSTYYADSVKGRFTISRDNSKNTLYLQLNSLRAEDTAVYYCAREGSDVVAGDWFAYWGQGTLVTVSS
VL: DIQLTQSPSSLSASVGDRVTITCRASQDISSVLAWYQQKPGKAPKLLIYDASSLESGVPSRFSGSGSGTDFTLTISSLQPEDFATYYCQQGYQIWTFGQGTKVEIKR
notes: Fab from E. coli; also called VH33/VL33
In the case of B10, the Kd [1] is reported as 3.97 nM, the koff [1] is reported as 0.00479 s⁻¹ and the kon [1] is reported as 1.21e+06 M⁻¹ s⁻¹.

B11: Fab 4140 (Fab, V domains shown)
VH: EVQLVESGGGLVQPGGSLRLSCAASGYSISSGYHWNWIRQAPGKGLEWVSSISGSGGSTYYADSVKGRFTISRDNSKNTLYLQLNSLRAEDTAVYYCARDPNYYSSGSYFDYWGQGTLVTVSS
VL: DIQLTQSPSSLSASVGDRVTITCRASQGIGSFLGWYQQKPGKAPKLLIYDASNRATGIPSRFSGSGSGTDFTLTISSLQPEDFATYYCQQSYSLWTFGQGTKVEIKR
notes: Fab from E. coli; also called VH9/VL9
With B11 the Kd [1] was under 0.001 nM, the koff [1] was under 1e-07 s⁻¹ and the kon [1] was 25700 M⁻¹ s⁻¹.

B12: Fab 5341 (Fab, V domains shown)
VH: EVQLVESGGGLVQPGGSLRLSCAASGYSITSGHHWAWIRQAPGKGLEWVSAISGDGSTTYYADSVKGRFTISRDNSKNTLYLQLNSLRAEDTAVYYCAREGSTAVTGDWFAYWGQGTLVTVSS
VL: DIQLTQSPSSLSASVGDRVTITCSASSRVGYVHWYQQKPGKAPKLLIYDASSLESGVPSRFSGSGSGTDFTLTISSLQPEDFATYYCQQGYYTWTFGQGTKVEIKR
notes: Fab from E. coli; also called VH20/VL20
In the case of B12, the Kd [1] is reported as 29.3 nM, the koff [1] is reported as 0.00188 s⁻¹ and the kon [1] is reported as 64200 M⁻¹ s⁻¹.

B13: Fab 5409 (Fab, V domains shown)
VH: EVQLVESGGGLVQPGGSLRLSCAASGYSISSGHHWAWIRQAPGKGLEWVSVISGSGSSTYYADSVKGRFTISRDNSKNTLYLQLNSLRAEDTAVYYCAREGSDTVLGDWFAYWGQGTLVTVSS
VL: DIQLTQSPSSLSASVGDRVTITCRASQGISSYLAWYQQKPGKAPKLLIYDASNLETGVPSRFSGSGSGTDFTLTISSLQPEDFATYYCQQGYSTWTFGQGTKVEIKR
notes: Fab from E. coli; also called VH37/VL37
B13 showed a Kd [1] of 17 nM, a koff [1] of 0.00427 s⁻¹ and a kon [1] of 251000 M⁻¹ s⁻¹. It also gave a Kd [2] of 17 nM, a koff [2] of 0.0043 s⁻¹ and a kon [2] of 250000 M⁻¹ s⁻¹.

B14: Fab 5318 (Fab, V domains shown)
VH: EVQLVESGGGLVQPGGSLRLSCAASGFSLSTSGVAVGWIRQAPGKGLEWLALIDWDDDKYYSTSLKSRLTISRDNSKNTLYLQLNSLRAEDTAVYYCAREGSTAVAGDWFAYWGQGTLVTVSS
VL: DIQLTQSPSSLSASVGDRVTITCQASQDIRTFLAWYQQKPGKAPKLLIYDASNRATGIPSRFSGSGSGTDFTLTISSLQPEDFATYYCQQGYSTWTFGQGTKVEIKR
notes: Fab from E. coli; also called VH18/VL18
In the case of B14, the Kd [1] is reported as 19 nM, the koff [1] is reported as 0.00269 s⁻¹ and the kon [1] is reported as 141000 M⁻¹ s⁻¹. For the same binder, the Kd [2] was 19 nM, the koff [2] was 0.0027 s⁻¹ and the kon [2] was 140000 M⁻¹ s⁻¹.

B15: Fab 5342 (Fab, V domains shown)
VH: EVQLVESGGGLVQPGGSLRLSCAASGFSLSTGGVAVGWIRQAPGKGLEWLALIDWAGDKSYSTSLKSRLTISRDNSKNTLYLQLNSLRAEDTAVYYCAREGEDAVTGDWFAYWGQGTLVTVSS
VL: DIQLTQSPSSLSASVGDRVTITCQASQDIRTYLAWYQQKPGKAPKLLIYDASNRATGIPSRFSGSGSGTDFTLTISSLQPEDFATYYCQQGYSIWTFGQGTKVEIKR
notes: Fab from E. coli; also called VH21/VL21
With B15 the Kd [1] was 38.9 nM, the koff [1] was 0.00612 s⁻¹ and the kon [1] was 157000 M⁻¹ s⁻¹. It also gave a Kd [2] of 39 nM, a koff [2] of 0.0061 s⁻¹ and a kon [2] of 160000 M⁻¹ s⁻¹.

B16: Fab 5314 (Fab, V domains shown)
VH: EVQLVESGGGLVQPGGSLRLSCAASGFSLSTGGVAVGWIRQAPGKGLEWLALIDWAGDKSYSTSLKSRLTISRDNSKNTLYLQLNSLRAEDTAVYYCARGGSDTVLGDWFAYWGQGTLVTVSS
VL: DIQLTQSPSSLSASVGDRVTITCRASQGVSPYLAWYQQKPGKAPKLLIYDASNRATGIPSRFSGSGSGTDFTLTISSLQPEDFATYYCQQGYSTWTFGQGTKVEIKR
notes: Fab from E. coli; also called VH16/VL16
B16 was tested, and the Kd [1] was 8.39 nM, the koff [1] was 0.00177 s⁻¹ and the kon [1] was 210000 M⁻¹ s⁻¹. For the same binder, the Kd [2] was 8.4 nM, the koff [2] was 0.0018 s⁻¹ and the kon [2] was 210000 M⁻¹ s⁻¹.

B17: Fab 5370 (Fab, V domains shown)
VH: EVQLVESGGGLVQPGGSLRLSCAASGFSLSTSGVAVAWIRQAPGKGLEWLALIDWDDDKRYSTSLKSRLTISRDNSKNTLYLQLNSLRAEDTAVYYCAREGSTTVVGDWFDYWGQGTLVTVSS
VL: DIQLTQSPSSLSASVGDRVTITCRASQGIGTYLAWYQQKPGKAPKLLIYDASNRATGIPSRFSGSGSGTDFTLTISSLQPEDFATYYCQQGYSLWTFGQGTKVEIKR
notes: Fab from E. coli; also called VH32/VL32
Binder B17 has a Kd [1] of 1.91 nM, a koff [1] of 0.001 s⁻¹ and a kon [1] of 524000 M⁻¹ s⁻¹. It also gave a Kd [2] of 1.9 nM, a koff [2] of 0.001 s⁻¹ and a kon [2] of 520000 M⁻¹ s⁻¹.
